Experimental data reported in publication PMC7642319, “Behavior control of membrane-less protein liquid condensates with metal ion-induced phase separation” (Nature Communications, 2020).

biological target: T1, second SH3 domain from Nck; assay: ITC; SH3 domain in the cell, chemically synthesized peptide as titrant in the syringe; PBS pH 7.4, 25 °C; one-site binding model; conditions: both partners purified
T1 construct: second SH3 domain of Nck; The methods say that 6His-tagged proteins were purified on Ni-IDA and that the tag could be removed with TEV protease; also called free SH3; SH3 domain proteins; source: E. coli BL21 (DE3), pET-21a, purified (Ni-IDA)

| Binder | Kd |
| --- | --- |
| ELELTAPTPPKRS [ELEL mutant PRM peptide (four Lys residues mutated to acidic ELEL)] | 121 µM |
| MKKTPPPVAPRTTSK [P9A mutant PRM(H) peptide] | 102 µM |
| MEETPPPVPPRTTSK [EE mutant PRM(H) peptide (two Lys residues mutated to acidic EE)] | 3.32 µM |
| MKKTPPAVPPRTTSK [P7A mutant PRM(H) peptide] | 19.4 µM |
| MKKTPPAVAPRTTSK [P7A P9A double mutant PRM(H) peptide] | 131 µM |

The next lines start with the values.

| Kd | Binder |
| --- | --- |
| 379 µM | MKKKKTAPTPPKRS [proline-rich motif (PRM) peptide, wild type] |
| 12.8 µM | MKKTPPPVPPRTTSK [PRM(H) peptide, wild type] |
